{"source": "the DeepSol protein solubility set", "data": [{"experiment": "soluble on expression in E. coli; label from the status in PepcDB or PDB records", "values": [{"sequence": "MGSDKIHHHHHHMPSTFESQLFFSRPFLSKRQIQRAQKNTISDYRNYNQKKLAVFKFLSDLCVQLKFPRKTLETAVYFYQRYHLFNRFETEVCYTVATSCLTLGCKEVETIKKTNDICTLSLRLRNVVKINTDILENFKKRVFQIELRILESCSFDYRVNNYVHIDEYVIKIGRELSFDYKLCNLAWVIAYDALKLETILVIPQHSIALAILKIAYELLDNKNWSSKRYSLFETDEKSVNEAYFDIVNFYINSFDMCDLQRHLPADLLPIGVERFMELKKNAGPESGLPQIPDHLLNADPYITITRDNNVQERRYVLSLELINGESSINSSTRHA", "soluble on expression in E. coli": "not soluble"}, {"sequence": "MPPDDPSGRHGPRIESFLSKVPVVSSNPLVCPYARKCTYGNKCKFYHPERANGQHMSVTERLMKENQQKKSLGAVKSMQYEMFKNKHAALSRTQSLNVVKQLTENMSQLPPTPESPMQMPRQHMQLQQANSAPWQQHTVVQRHGSSPLTPVNRQMNVYPDMYNMSQQQNHQVLPNQHGVIGGQRPPKMTTTVSQTHLFAPSTAVWGHSELSVGPVNTGSDESLAEVRSRVHFHLCNIFPHDFVESVMAANPEEVNAPVLCELIIRAQKEYRK", "soluble on expression in E. coli": "not soluble"}, {"sequence": "MRLDRYLSNSGVGTRKEVKKLIKQGRVTVNGRVVLDPGHPVLENDAVALDGEVVRFHKKVYILFYKPSGYVTSTKDPHSETIMEFLPPLKGIFPVGRLDKDAEGLLIITNDGDFAHRVISPKWSVEKEYIVKVEGEVTEDKIEKLKNGVTLRDGFFAKAKRVEKLSNDTLKIVITEGKYHQIKRMTAAVGLKTVHLKRTRIGGLVLPDDMKPGEYRFLSEEEVKKVFEREDQKEDTPRS", "soluble on expression in E. coli": "not soluble"}, {"sequence": "MSLQPSQRVVLSHLVHGGWDEIAHSSLRPEIRGFKRTREVARSLLARRLPIYSAVFTGDCLFGNHPLLRPIGIHMQNVQAGNLLVSSTLVDGTVLNQAVCLMVHEDTEHAIGLMLNRPMQAMAGAITIQGTPQETPKIPRWNAEDLDETSEGDSTIDPSSDSIEHPVSGVPSVVISGDQKDQLAQQLLSGKLANGSSLHFGGPLSGPIVAVHSNRELAEAETGEGIFVAAQRENLEALMKSSDLPYRLIIGHLGWTAEQLENEIEEGIWHRIPATSDLLNSDDAMMWPRMIRRATANSVARWLDTTDVPGSAELNEGHHHHHH", "soluble on expression in E. coli": "soluble"}, {"sequence": "MNRTKGDEEEYWNSSKFKAFTFDDEDDELSQLKESKRAVNSLRDFVDDDDDDDLERVSWSGEPVGSISWSIRETAGNSGSTHEGREQLKSRNSFSSYAQLPKPTSTYSLSSFFRGRTRPGSFQSLSDALSDTPAKSYAPELGRPKGEYRDYSNDWSPSDTVRRLRKGKVCSLERFRSLQDKLQLLEEAVSMHDGNVITAVLIFLKRTLSKEILFRELEVRQVALRHLIHFLKEIGDQKLLLDLFRFLDRTEELALSHYREHLNIQDPDKRKEFLKTCVGLPFSAEDSAHIQDHYTLLERQIIIEANDRHLESAGQTEIFRKHPRKASILNMPLVTTLFYSCFYHYTEAEGTFSSPVNLKKTFKIPDKQYVLTALAARAKLRAWNDVDALFTTKNWLGYTKKRAPIGFHRVVEILHKNNAPVQILQEYVNLVEDVDTKLNLATKFKCHDVVIDTYRDLKDRQQLLAYRSKVDKGSAEEEKIDALLSSSQIRWKN", "soluble on expression in E. coli": "soluble"}, {"sequence": "MSKNYHIAVLPGDGIGPEVMAQALKVMDAVRSRFDMRITTSHYDVGGIAIDNHGHPLPKATVEGCEQADAILFGSVGGPKWENLPPESQPERGALLPLRKHFKLFSNLRPAKLYQGLEAFCPLRADIAANGFDILCVRELTGGIYFGQPKGREGSGQYEKAFDTEVYHRFEIERIARIAFESARKRRRKVTSIDKANVLQSSILWREIVNDVAKTYPDVELAHMYIDNATMQLIKDPSQFDVLLCSNLFGDILSDECAMITGSMGMLPSASLNEQGFGLYEPAGGSAPDIAGKNIANPIAQILSLALLLRYSLDANDAATAIEQAINRALEEGVRTGDLARGAAAVSTDEMGDIIARYVAEGV", "soluble on expression in E. coli": "soluble"}, {"sequence": "MCIKGCKRRIHPTRLLMLIRTEAPADILVVDQLLKNVFATEAEADLVMALRENGQRTLSLVACDDEGEIVGHVMFSPVTLEGEDLNWQGLAPLAVKEEYRRQGIGAELVKEGLSSLGELGYPACVVLGDPAYYSRFGFEDAARYSLRCAWDVPQGAFQVVALWERELDGRCGVIEYSQEFAAL", "soluble on expression in E. coli": "not soluble"}, {"sequence": "ALLITKKCINCDMCEPECPNEAISMGDHIYEINSDKCTECVGHYETPTCQKVCPIPNTIVKDPAHVETEEQLWDKFVLMHHADKI", "soluble on expression in E. coli": "soluble"}]}]}
